B1: hS1MB-7 (designed binder)
chain: VSSVPTKLEVVAATPTSLLISWDASSSSVSYYEITYGETGGNSPVQEFTVPGSSSTATISGLSPGVDYTITVIAFYSHDDIYISDSPSSINYRT
B2: hS1MB-3 (designed binder)
chain: B1 chain with Y31H, E33A, I73Y, F75Y, Y76H, H78Y, Y82F, I83L, S84A
B3: hS1MB-20 (designed binder)
chain: B1 chain with Y31H, E33S, I73Y, F75Y, Y76D, H78I, D79E, S84A
B4: hS1MB-17 (designed binder)
chain: B1 chain with I73S, F75Y, Y76N, H78Y, I83Y, S84A, D85V
B5: hS1MB-16 (designed binder)
chain: B1 chain with Y31H, E33D, I73Y, F75Y, Y76N, Y82F, S84A, D85Y
B6: hS1MB-18 (designed binder)
chain: B1 chain with I73F, F75Y, Y76D, H78V, D79E, I83V, D85Y
B7: hS1MB-23 (designed binder)
chain: B1 chain with Y31H, I73Y, F75Y, Y82F, I83Y, S84A, D85F
B8: hS1MB-11 (designed binder)
chain: B1 chain with Y31N, E33A, I73Y, F75Y, H78Y, Y82F, I83V, S84A
B9: ySMB-1 (designed binder)
chain: B1 chain with E33R, I73Y, F75Y, H78Y, D79Y, I81L, I83Y, D85Y
B10: SEQ ID NO 87 (designed binder)
chain: B1 chain with Y31H, E33H, I73Y, H78D, I81L, I83F, S84A, D85F
B11: SEQ ID NO 91 (designed binder)
chain: B1 chain with Y31H, I73A, F75Y, Y76H, H78Y, D79H, Y82F, I83Y, S84A, D85V
B12: SEQ ID NO 96 (designed binder)
chain: B1 chain with Y31H, E33D, I73H, F75Y, H78Y, I83V, S84A, D85I
B13: SEQ ID NO 90 (designed binder)
chain: B1 chain with Y31H, I73Y, F75Y, D79E, Y82F, I83Y, S84A, D85V
B14: SEQ ID NO 89 (designed binder)
chain: B1 chain with Y31H, E33A, I73Y, F75Y, Y76H, H78Y, Y82F, I83L, S84A
B15: SEQ ID NO 95 (designed binder)
chain: B1 chain with Y31H, E33A, I73F, F75Y, H78Y, I83Y, S84A, D85Y
B16: SEQ ID NO 88 (designed binder)
chain: B1 chain with Y31H, E33G, I73Y, F75Y, Y76H, H78Y, I83Y, S84A, D85L
B17: SEQ ID NO 93 (designed binder)
chain: B1 chain
B18: SEQ ID NO 94 (designed binder)
chain: B1 chain with Y31H, E33A, I73Y, F75Y, H78Y, I81L, I83V
B19: SEQ ID NO 92 (designed binder)
chain: B1 chain with Y31H, I73T, F75Y, Y76D, H78Y, D79Y, S84A, D85Y
B20: hS1MB-15 (designed binder)
chain: B1 chain with E33D, I73Y, F75Y, H78Y, I83F, S84A
B21: hS1MB-19 (designed binder)
chain: B1 chain with Y31H, E33G, I73Y, F75Y, H78Y, Y82F, I83V, S84A, D85V
B22: hS1MB-14 (designed binder)
chain: B1 chain with Y31H, E33H, I73Y, F75Y, H78Y, D79N, Y82F, I83F, S84A
B23: hS1MB-12 (designed binder)
chain: B1 chain with I73F, F75Y, Y76H, H78D, I81L, I83Y, S84A, D85F
B24: hS1MB-22 (designed binder)
chain: B1 chain with Y31H, E33A, I73Y, H78Y, D79Y, Y82F, I83Y
B25: hS1MB-13 (designed binder)
chain: B1 chain with E33A, I73Y, F75Y, Y76H, H78Y, I83F, S84A, D85F
B26: hS1MB-21 (designed binder)
chain: B1 chain with Y31H, E33G, I73Y, F75Y, H78Y, D79H, Y82F, I83Y, S84A, D85L

Residue numbers refer to the chain shown, from its start.

For the first experiment, the target named is human small ubiquitin-like modifier 1 (human) (UniProt P63165). Kind of experiment: SPR (Biacore 2000), monobody immobilised via His-tag on NTA surface, hSUMO1 flowed over it.
On to B1, for which the Kd came to 2500 nM.
Still for that read-out and setting: with B2 the figure was 519 nM.

A further experiment has the same target. The experiment can be described thus: ratio of the apparent affinity for hSUMO1 to that for ySUMO in the titration phage ELISA of FIGS. 25A and 26A; group High Specificity (>100).
With B1, the Specificity Factor was greater than 100.
For the molecule B3, the Specificity Factor is greater than 100.
B4: the Specificity Factor was greater than 100.
For the molecule B5, the Specificity Factor is greater than 100.
B6: the Specificity Factor was greater than 100.

For a further experiment the target is unchanged. Kind of experiment: ratio of the apparent affinity for hSUMO1 to that for ySUMO in the titration phage ELISA of FIGS. 25A and 26A; group Moderate Specificity (10-100).
Take B7: the Specificity Factor was determined as 52.5.
As to B2, the Specificity Factor was found to be 12.3.
Consider B8, for which the Specificity Factor was 13.1.

The target is the same in another experiment. Kind of experiment: SPR.
For B9, the Kd came to 54000 nM and the fold discrimination in affinity (ySUMO over hSUMOs) was greater than 600 fold.

For the next experiment the target is unchanged. Kind of experiment: SPR (monobody on the chip via His-tag, target flowed); estimated Kd [Continued].
B10: the Kd was 652 nM.
On to B11, for which the Kd was 284 nM.
For B12, the Kd was 2200 nM.
Same read-out and setting: the figure for B13 is 145 nM; for B14 it is 519 nM; for B15 it is 738 nM.
On the same count and under the same terms, with B16 the figure was 290 nM; with B17, 2500 nM; with B18, 3600 nM.
Still for that read-out and setting: the figure for B19 is 2800 nM.

The target is the same in a further experiment. The experiment can be described thus: ratio of the apparent affinity for hSUMO1 to that for ySUMO in the titration phage ELISA of FIGS. 25A and 26A; group Low Specificity (0-10).
On to B20, for which the Specificity Factor was 2.9.
On the same count and under the same terms, with B21 the figure was 8; with B22, 2.6; with B23, 4.4.
Same read-out and setting: the figure for B24 is 0.6.
For B25, the Specificity Factor worked out at 1.4.
The same measure, in the same setting: with B26 the figure was 0.7.

The record behind these values is patent US20140057807A1.
